This note sets out measurements from CN101022829A (GENENTECH INC, dated 2007).

One may read the Kd as the concentration at which binding is half-saturated.

Experiment [1] addresses T1, human CD20 (human) (UniProt P11836).
T1 sequence (looked up): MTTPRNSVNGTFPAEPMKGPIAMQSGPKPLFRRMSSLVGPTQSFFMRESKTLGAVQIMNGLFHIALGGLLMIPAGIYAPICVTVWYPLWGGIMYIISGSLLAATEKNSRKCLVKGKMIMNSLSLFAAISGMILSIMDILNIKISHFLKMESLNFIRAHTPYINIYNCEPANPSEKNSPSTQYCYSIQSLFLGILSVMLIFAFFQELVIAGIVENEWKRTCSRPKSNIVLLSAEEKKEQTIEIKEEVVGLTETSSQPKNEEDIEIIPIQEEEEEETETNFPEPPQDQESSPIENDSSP
Put plainly: Scatchard, competition with 125I-2H7.v16 on WIL2-S cells, n=3.

Experiment [2] has as its target T1, human CD20 (human). Briefly: cell-based or functional assay.
The target in experiment [3] is T2, human CD20 (human, UniProt P11836 1-297).
T2 construct: whole, on cells; also called Bp35
T2 sequence (looked up): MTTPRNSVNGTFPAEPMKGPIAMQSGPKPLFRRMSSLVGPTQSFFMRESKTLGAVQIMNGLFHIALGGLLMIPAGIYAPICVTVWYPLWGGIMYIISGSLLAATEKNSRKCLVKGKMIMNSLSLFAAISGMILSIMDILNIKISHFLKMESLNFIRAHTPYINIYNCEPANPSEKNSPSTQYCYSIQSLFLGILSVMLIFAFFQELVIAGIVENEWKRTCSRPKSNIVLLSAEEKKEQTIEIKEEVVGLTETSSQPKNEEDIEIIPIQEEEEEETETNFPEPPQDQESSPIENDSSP
Put plainly: cell ELISA, WIL2-S; v16 as comparator, normalised to chimera.

Experiment [4] addresses T2, human CD20. Put plainly: Scatchard, competition with 125I-2H7.v16 on WIL2-S cells, n=4.

RITUXAN (rituximab) (antibody) had a Kd with human CD20 (human) [1] of 0.99 nM. In the experiment with human CD20 (human) [2], this molecule yielded an ADCC, EC50(variant)/EC50(2H7.v16) of 5.3; an ADCC, EC50(variant)/EC50(RITUXAN) of 1; a CDC, EC50(variant)/EC50(RITUXAN) of 1.

B1: 2H7.v138 (antibody, human IgG1, kappa, V domains shown)
VH: EVQLVESGGGLVQPGGSLRLSCAASGYTFTSYNMHWVRQAPGKGLEWVGAIYPGNGATSYNQKFKGRFTISVDKSKNTLYLQMNSLRAEDTAVYYCARVVYYSASYWYFDVWGQGTLVTVSS
VL: DIQMTQSPSSLSASVGDRVTITCRASSSVSYLHWYQQKPGKAPKPLIYAPSNLASGVPSRFSGSGSGTDFTLTISSLQPEDFATYYCQQWAFNPPTFGQGTKVEIKR
On to B1, for which, in the experiment with human CD20 [3], the relative binding (ratio to v6.8) was 1.2.

B2: 2H7.v73 (antibody, V domains shown)
VH: EVQLVESGGGLVQPGGSLRLSCAASGYTFTSYNMHWVRQAPGKGLEWVGAIYPGNGDTSYNQKFKGRFTISVDKSKNTLYLQMNSLRAEDTAVYYCARVVYYSASYWYFDVWGQGTLVTVSS
VL: DIQMTQSPSSLSASVGDRVTITCRASSSVSYLHWYQQKPGKAPKPLIYAPSNLASGVPSRFSGSGSGTDFTLTISSLQPEDFATYYCQQWSFNPPTFGQGTKVEIKR
Regarding B2, binding with human CD20 [4] was characterised by a dissociation constant (Kd) of 1.22 nM.
